This assay deals with F-actin (preassembled filaments of rabbit skeletal muscle actin) (rabbit, UniProt P68135 1-377).

Numbering of substitutions follows the chain as printed. Numbers in names are those of the source.

B1: tyrosyl-tRNA synthetase E196K (CMT-causing mutant), recombinant Xpress-6xHis tagged (His-YARS1^E196K) (enzyme)
chain: MGDAPSPEEKLHLITRNLQEVLGEEKLKEILKERELKIYWGTATTGKPHVAYFVPMSKIADFLKAGCEVTILFADLHAYLDNMKAPWELLELRVSYYENVIKAMLESIGVPLEKLKFIKGTDYQLSKEYTLDVYRLSSVVTQHDSKKAGAEVVKQVEHPLLSGLLYPGLQALDEEYLKVDAQFGGIDQRKIFTFAKKYLPALGYSKRVHLMNPMVPGLTGSKMSSSEEESKIDLLDRKEDVKKKLKKAFCEPGNVENNGVLSFIKHVLFPLKSEFVILRDEKWGGNKTYTAYVDLEKDFAAEVVHPGDLKNSVEVALNKLLDPIREKFNTPALKKLASAAYPDPSKQKPMAKGPAKNSEPEEVIPSRLDIRVGKIITVEKHPDADSLYVEKIDVGEAEPRTVVSGLVQFVPKEELQDRLVVVLCNLKPQKMRGVESQGMLLCASIEGINRQVEPLDPPAGSAPGEHVFVKGYEKGQPDEELKPKKKVFEKLQADFKISEECIAQWKQTNFMTKLGSISCKSLKGGNIS
As a reminder, the Kd is the free concentration of one partner at which half of the binding sites on the other are occupied at equilibrium, for simple one-to-one binding. A higher Kd goes with lower affinity. Regarding B1, the Kd stood at 800 nM.

B2: tyrosyl-tRNA synthetase, wild type, recombinant Xpress-6xHis tagged (His-YARS1^WT) (enzyme)
chain: B1 chain with K196E
In turn, B2 came in with a Kd of 750 nM.

These data come from PMC9995517 (2023).
